From the DeepSol protein solubility set

Assay: soluble on expression in E. coli; label from the status in PepcDB or PDB records

Sequence	soluble on expression in E. coli
MGSDKIHHHHHHMKRENLHQPFEICFSELDESQLKEHDHTFFELVYILSGTGIQWINNNKFPYHDGHLFMITPGDIHSFDIHTTTKFVYIKFNDIYIHSAVFGAENIQRLEFILQHANHRPGCILRNQTDKLLVKPMIEAIIREYVNRNIYSSEIITQLINTIVIVVARNIAMFLPEQIDENSEEKSLNILQYIQSNICYPEKIKAKAISQHFGISPNYLGRYFKKQTNETMQQYILNYKMKMVESRLLHSEMRISEIVEELGFTDESHLNRLFKKYKDCNPTDFRKKHRGQ	not soluble
MSALSTLKVTFIVSPPSFPCFHTPGPRRKAAPFRFTGQSAYPLWYHGGMAEAFCPVYAALNLLQEKWTLHIIRALLEGPKGFNELSRAVGGVNPATLSQRLDQLVRLGVVEKRVESYMPPRTRYSLTPAGEELEEVVQAIERWARRHLKAPDPAR	soluble
MKTGDKQFAVIGLGRFGLAVCKELQDSGSQVLAVDINEDRVKEAAGFVSQAIVANCTHEETVAELKLDDYDMVMIAIGADVNASILATLIAKEAGVKSVWVKANDRFQARVLQKIGADHIIMPERDMGIRVARKMLDKRVLEFHPLGSGLAMTEFVVGSRLMGKTLSDLALCKVEGVQVLGFKRGPEIIKAPDMSTTLEIGDLIIVVGPQDKLANKLKSLLEHHHHHH	not soluble
MRKELVFVLLALFLCAGCNGNKKKMNGEHDLDAANITLDDHTISFYYNWYGNPSVDGEMKHWMHPIALAPGHSGDVGAISGLNDDIACNFYPELGTYSSNDPEIIRKHIRMHIKANVGVLSVTWWGESDYGNQSVSLLLDEAAKVGAKVCFHIEPFNGRSPQTVRENIQYIVDTYGDHPAFYRTHGKPLFFIYDSYLIKPAEWAKLFAAGGEISVRNTKYDGLFIGLTLKESELPDIETACMDGFYTYFAATGFTNASTPANWKSMQQWAKAHNKLFIPSVGPGYIDTRIRPWNGSTTRDRENGKYYDDMYKAAIESGASYISITSFNEWHEGTQIEPAVSKKCDAFEYLDYKPLADDYYLIRTAYWVDEFRKARSASEDVQLEHHHHHH	soluble
SETILEQQRRYHEEKERLMDVMAKEMLTKKSTLRDQINSDHRTRAMQDRYMEVSGNLRDLYDDKDGLRKEELNAISGPNEFAEFYNRLKQIKEFHRKHPNEICVPMSVEFEELLKARENPSEEAQNLVEFTDEEGYGRYLDLHDCYLKYINLKASEKLDYITYLSIFDQLFDIPKERKNAEYKRYLEMLLEYLQDYTDRVKPLQDQNELFGKIQAEFEKKWENGTFPGWPKETSSALTHAGAHLDLSAFSSWEELASLGLDRLKSALLALGLKCGGTLEERAQRLFSTKGKSLESLDTSLFAKNPKSKGTKRDTERNKDIAFLEAQIYEYVEILGEQRHLTHENVQRKQARTGEEREEEEEEQISESESEDEENEIIYNPKNLPLGWDGKPIPYWLYKLHGLNINYNCEICGNYTYRGPKAFQRHFAEWRHAHGMRCLGIPNTAHFANVTQIEDAVSLWAKLKLQKASERWQPDTEEEYEDSSGNVVNKKTYEDLKRQGLL	soluble
MNSLLAELNRLGVAHATTEDVFIFVDRLFQHFSFLFQAEESGPRRLELVASVFEHLTVECVNDILDACSHPDVNVAETSNTCRPCPSPVPSAPKTVSGAQTSCATPRAPVTLEHHHHHH	not soluble
TCGLRQYSQPQFRIKGGLFADIASHPWQAAIFAKHRRSPGERFLCGGILISSCWILSAAHCFQERFPPHHLTVILGRTYRVVPGEEEQKFEVEKYIVHKEFDDDTYDNDIALLQLKSDSSRCAQESSVVRTVCLPPADLQLPDWTECELSGYGKHEALSPFYSERLKEAHVRLYPSSRCTSQHLLNRTVTDNMLCAGDTRSGGPQANLHDACQGDSGGPLVCLNDGRMTLVGIISWGLGCGQKDVPGVYTKVTNYLDWIRDNMRP	soluble
AHHHHHHGSNLRNKLKLYVITDRRLKPEVESVREALEGGATAIQMRIKNAPTREMYEIGKTLRQLTREYDALFFVDDRVDVALAVDADGVQLGPEDMPIEVAKEIAPNLIIGASVYSLEEALEAEKKGADYLGAGSVFPTKTKEDARVIGLEGLRKIVESVKIPVVAIGGINKDNAREVLKTGVDGIAVISAVMGAEDVRKATEELRKIVEEVLG	soluble
MKSKLKLHGFNNLTKTLSFNIYDICYAETPEDLQAYVQYIDEEYDAERLTQILTDVVDIIGANILNIARQDYDPQGASVTILISEQPVTPTDSQIEESPGPLPDTILAHLDKSHITVHTYPEIHPVDGIATFRVDIDVSTCGVISPLKALNYLIHQFDSDIVTVDYRVRGFTRDIEGRKHFIDHEINSIQNYLSDDTREAYQMTDVNVYQENLFHTKMLLKDFELENYLFGDATRTLSAEQREQVTERLKHEMLEIFYARNMPR	not soluble
SMLSRAKPAVGGESPHTDKRKKKGRKIPKLEDLLSQRDFTGAITLLEFKRHVGEQEDDTNLWIGYCAFHLGDYKRALEEYENATKEENCNPEVWVNLACTYFFLGMYKQAEAAGFKAPKSRLQNRLLFHLAHKFNDEKKLMNFHQNLQDIKEDQLSLASNSEIHLPLPPECWD	soluble
MTKSLESVSFKDVTVDFSRDEWQQLDLAQKSLYREVMLENYFNLISVGCQVPKPEVIFSLEQEEPCMLDGEIPSQSRPDGDIGFGPLQQRMSEEVSFQSEININLFTRDDPYSILEELWKDDEHTRKCGENQNKPLSRVVFINKKTLANDSIFEYKDIGEIVHVNTHLVSSRKRPHNCNSCGKNLEPIITLYNRNNATENSDKTIGDGDIFTHLNSHTEVTACECNQCGKPLHHKQALIQQQKIHTRESLYLFSDYVNVFSPKSHAFAHESICAEEKQHECHECEAVFTQKSQLDGSQRVYAGICTEYEKDFSLKSNRQKTPYEGNYYKCSDYGRAFIQKSDLFRCQRIHSGEKPYEYSECEKNLPQNSNLNIHKKIHTGGKHFECTECGKAFTRKSTLSMHQKIHTGEKPYVCTECGKAFIRKSHFITHERIHTGEKPYECSDCGKSFIKKSQLHVHQRIHTGENPFICSECGKVFTHKTNLIIHQKIHTGERPYICTVCGKAFTDRSNLIKHQKIHTGEKPYKCSDCGKSFTWKSRLRIHQKCHTGERHYECSECGKAFIQKSTLSMHQRIHRGEKPYVCTECGKAFFHKSHFITHERIHTGEKPYECSICGKSFTKKSQLHVHQQIHTGEKPYRCAECGKAFTDRSNLFTHQKIHTGEKPYKCSDCGKAFTRKSGLHIHQQSHTGERHYECSECGKAFARKSTLIMHQRIHTGEKPYICNECGKSFIQKSHLNRHRRIHTGEKPYECSDCGKSFIKKSQLHEHHRIHTGEKPYICAECGKAFTIRSNLIKHQKIHTKQKPYKCSDLGKALNWKPQLSMPQKSDNGEVECSMPQLWCGDSEGDQGQLSSI	soluble
MNNQKQQKPTLSGQRFKTRKRDEKERFDPTQFQDCIIQGLTETGTDLEAVAKFLDASGAKLDYRRYAETLFDILVAGGMLAPGGTLADDMMRTDVCVFAAQEDLETMQAFAQVFNKLIRRYKYLEKGFEDEVKKLLLFLKGFSESERNKLAMLTGVLLANGTLNASILNSLYNENLVKEGVSAAFAVKLFKSWINEKDINAVAASLRKVSMDNRLMELFPANKQSVEHFTKYFTEAGLKELSEYVRNQQTIGARKELQKELQEQMSRGDPFKDIILYVKEEMKKNNIPEPVVIGIVWSSVMSTVEWNKKEELVAEQAIKHLKQYSPLLAAFTTQGQSELTLLLKIQEYCYDNIHFMKAFQKIVVLFYKAEVLSEEPILKWYKDAHVAKGKSVFLEQMKKFVEWLKNAEEESESEAEEGD	soluble
MVKAQLQKLIEQVATEHDLPERVVERALKNAIITAIRKEKKIRDELEVEFTDEGIKVYVVRRKGNKKFKFPLDISPEDLNRLAAYAAKEEFYKELERAEQERGYLEFKELEGEIVYGIVRKVLENGDVIVDLGRIDAILPKREQLPTDNFKTGDKVKALLLEVRKRRGEPVLILSRTHPNFLRKLLEQEVPEIKEGLVEIKAVARIPGERAKVAVEAKEMKMDPVGIVVGLKGMRIQKVSEELGGEKIDVIRWSDDIAELIKRALAPAHPEKIKLFPYEKRAEVAVPEEELSLAIGKKGINVKLASKLTGWHIDVLSTKDFEKLEELRKKEDEGQTS	soluble
MKQQEEHNNKIDLLEKQQAQLKSQLETIQKQQTGIISSTKTLTHVIKSVKDQQNTFIFTEFNPAKTKYFILNNGSVALAGRVLSIDATENGSVIHISLVNLLSTPISNIGFNATWGGEKPVDAKEFARWQQLLFNTSMKSTLKLLPGQWQDINLTLKGVSPNNLGYLKLAINMENIQFDNLPSAENRQKRSKK	not soluble
MQEVPPDFEDVHIAEARVDVPSTWRDQIVNTNAVATETHPLKCAEVETQTGSKDNQGTQTDDAGGGRPPSPSKVQASGVADFMAKVEGMVAGELVKATEEHEVLEPFTRAADDEQEPATCIHYLSPFQQDAAANQDLNAT	soluble
KTHEGHCYIIKAHTPIEEFNEQLNADFSDETYDTIGGIVLNKFGYLPQRGEVIIIDDFEFKVLNADSRRIKLLECLDKR	soluble
MPLHQVVEPAFYIVVVLDLVSGRLNGHDKDTLGLAQQLANRNSGGGAVVAIAFGELKDDSLNKAGVDRLIHINDEQYDQYNPEQRCNDLQGIIGELDPQHILLPDSINGGGDLGRRLAAALQQRPACGVWKLNDDTVVCR	not soluble
MSILMPVRNEERFLPAALASLCRQSLTAWELIVVDDGSTDDTPELLRVAAARDRRVRVFNNAGAGLVDALNYGLAHCRAELVARMDGDDISHPQRLERQAAALDADPGLGLVATRFRHFPRHSVGLGMRAYEEWQNGLLTHEEIMRDRFVESPVVHPSVMARRQALTDAGGYRKTGWAEDYDLWLRLAAGGVRFTRLPEVLFFWRERPERATRTMGEYAADAFRACKIHHLCQGFLLGVDNVTLAGAGLEGRAWQRALAREGVRVGRWLDVDPRKQGRILHGAPVTAPDDVRAGAEKILVTVGTRGARDGVRAWARRAGLREGEDFVCVTLEHHHHHH	not soluble
MGSDKIHHHHHHAGTYNPKNTTSFNINKSNYVAKGRIYKLRLPAAGRVVTNSDITLKNSMEWTCIPYGKDKNTYYLRKGTYYLTSSKNTNVKTAYTRLTKIRKNLETYVETKKNNDNSSLRAREIKVGQKIKAMGAMYDYDGIDYYRFTIDSPQMVTMKMTNAPIYQLGNGNIFSKMGITMFSDNNPVGDNTILYPETFSSKGNKSASQSWYLAKGTYYFSVSTRGLYNFQLTAVPDTRMVPADTEIESLKDTKDGVVASLRDALHAKTYELAWREKGSKFAPFSSSSNTTKVSTASATRYLKVNGHEIPVQIGRKLVNGQTYEFVARGVSNPNYIRYGNPETDNYFGAWTKIVEHTYYAPANGVPGAVELNAQADNTYHNIHVSWTKIDTAQSYRVAYRQKGTNKWYYEVTDQDSNAVTGITRNKTYELKLQALNGKEEGPWSTVKEVFLK	not soluble
MAHHHHHHMLRGTRGFLAVSPGVGIAPETTPVKYTPMMLNIQNMMWWNGKRNLYRATYREKTWYEISRTGAFTKGRRPVMRQKYSREALQAALAMVPPGFEVADVPRPPQRILAQSEGIVGRWYSNYWTLHSMRYQCLLAGVEWPLGERQRPRTNYDEPFFFADFEESKAIQDYRSRWINVNRSLVGMTKRMKEAEEEARYMQFRKLQDTFWSNRKVLVNRVKSMYNQGARTSAKDMPIKTINIKAFLSE	not soluble
MLGLRRKVRIETERMTLRLPAHSDWRDWAALRAESATFLTPWEPVWSSDHLSRKAFTNRVYWAARAESQGTALPVLLIRREDQALLGAITLDNIRRGPAQSGTLGYWIGRPHARQGYMREAIQGIVHHAFTAMDVSRIEAACLPENAASRGVLEKCGFKYEGVAQSYLQIAGRWRNHVLYANLRGDRRGRTDAG	not soluble
